Assays:
[1] = target: HA-tagged human surfeit locus protein 4 (HA-Surf4) (human) (UniProt O15260); assay: binding to immuno-isolated microsomes on magnetic beads, bound GH read by ELISA; titration; microsomes of HA-Surf4-transfected HEK293A cells held on Protein G-Dynabeads with anti-Surf4 carboxy-terminal antibody, CEB-permeabilised; 0, 100, 200, 300, 400 or 800 nM GH for 1 hr at RT in KHMC buffer; GH eluted with … peptide; estimate of the binding constant from half-maximal …
[2] = target: HA-tagged human surfeit locus protein 4 (HA-Surf4) (human) (UniProt O15260); assay: co-sedimentation; crude microsomes from Surf4^KO HEK293A cells transfected with HA-Surf4, permeabilised with CEB (digitonin) 30 min on ice; 400 nM GH (conditioned media in KHMC buffer) 1 hr on ice; pelleted at >100,000 x g; bound GH released with … peptide and read by hGH ELISA; controls: microsomes without CEB and microsomes of untransfected Surf4^KO cells

Chain of UniProt O15260 (O15260 whole entry): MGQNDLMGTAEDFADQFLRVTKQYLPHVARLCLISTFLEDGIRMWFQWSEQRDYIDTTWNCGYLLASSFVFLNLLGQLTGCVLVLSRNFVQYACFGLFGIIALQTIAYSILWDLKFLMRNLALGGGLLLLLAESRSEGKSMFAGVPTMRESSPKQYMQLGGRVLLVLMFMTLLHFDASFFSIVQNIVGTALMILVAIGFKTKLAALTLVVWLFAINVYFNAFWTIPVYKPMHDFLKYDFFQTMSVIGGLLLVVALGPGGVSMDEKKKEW

Question: Which results are given for “APV-GH (human growth hormone-1 starting with alanine-proline-valine) (from UniProt P01241 27-217) (natural protein)”?
Answer: Kd [1]: 200 to 300 nM; fold increase in binding after digitonin permeabilisation of the microsomes [2]: > 5 fold

Source: publication PMC6097701
